This is an account of results in patent US20040102606A1, “Histone H2A -derived peptides useful in gene delivery” (priority 2003, published 2004).

The subject of this test is syngeneic mouse model of neuroblastoma. The test can be described thus: Vaccination with histone H2A-transfected NXS2 cells, syngeneic mouse model of neuroblastoma. Conditions: subcutaneous immunization, histone H2A transient transfection; challenge with wild type tumor cells. In kind it is in vivo. From the text:
The present invention also contemplates use of the H2A-derived peptides to facilitate gene delivery in vivo. This embodiment is based on the successful subcutaneous immunization in a novel syngeneic mouse model of neuroblastoma with a single chain IL-12 fusion protein that was mediated by histone H2A transient transfection.
For this approach with intact histone H2A and also extendable to the peptides of this invention, mouse IL-2 and scIL-12 were cloned into the expression vector pcDNA3.1 (Invitrogen, Carlsbad, Calif.) as previously described (Lode et al., Proc. Natl. Acad. Sci., USA, 95:2475-2480, 1998). […] Supercoiled DNA was quantitated on 0.9% agarose gels using Stratagene's Eagle Eye. […] production was quantified on a 24 hour basis in cell culture supernatants using an ELISA assay kit (Biosource, Camarillo, Calif.) and compared with standard preparations of these cytokines. […]
NXS2 cells were tested routinely for the absence of mycoplasma contamination (Gen Probe® Mycoplasma Rapid Detection System, Fisher Scientific, Pittsburgh, Pa.). […] Cell viability was determined using trypan blue staining (Life Technologies, Gaithersburg, Md.), and the number of viable cells per experimental condition were determined. […]

B1: IL-2: mouse IL-2 expressed from pcDNA3.1 in transfected NXS2 cells (protein, UniProt P04351 21-169, looked up)
Interleukin-2: APTSSSTSSSTAEAQQQQQQQQQQQQHLEQLLMDLQELLSRMENYRNLKLPRMLTFKFYLPKQATELKDLQCLEDELGPLRHVLDLTQSKSFQLEDAENFISNIRVTVVKLKGSDNTFECQFDDESATVVDFLRRWIAFCQSIISTSPQ
B1: the tumor immunity result is recorded as “no tumor immunity”.
